Patent US20260265360A1 (NEURACLE SCIENCE, published 2026)
Ends that are not written are not given here.

B1: Anti-FAM19A5 antibody 1-65 (antibody, V domains shown)
VH: AVTLDESGGGLQTPGGALSLVCKASGFTFSSYQMGWVRQAPGKGLEWVGVINKSGSDTSYGSAVKGRATISRDNGQSTVRLQLNNLRAEDTGTYFCAKGSASYITAATIDAWGHGTEVIVSS
VL: ALTQPSSVSANPGETVKITCSGGGSSGYGYGWYQQKSPSSAPLTVIYWNDKRPSDIPSRFSGSKSGSTHTLTITGVQAEDEAVYFCGNDDYSSDSGYVGVFGAGTTLTVL
notes: also called monoclonal antibody clone 1-65
B2: Anti-FAM19A5 antibody P2-C12 (antibody, V domains shown)
VH: QSLEESGGRLVTPGTPLTLTCTVSGFSLSTYAVTWVRQAPGKGLEWIGYINWRGGTSYANWAKGRFTISKTSSTTVDLKMTSPTTEDTATYFCARDASSGAAFGSYGMDPWGPGTLVTVSS
VL: ELDMTQTPSSVSAAVGGTVTIKCQASQSISSYLSWYQQKPGQPPKLLIYEASKLASGVPSRFSGSGYGTEFTLTISDLECADAATYYCQQGYSSTNVWNAFGGGTNVEIK
B3: Anti-FAM19A5 antibody 13B4 (antibody, V domains shown)
VH: QVQLQESGPGLVKPSGTLSLNCAVSGGSISSSNWWSWVRQPPGKGLEWIGEIYHGGTTNYNPSLKGRVTMSVDKTKNQFSLRLSSVTAVDTAVYYCARWQLVGGLDVWGQGTTVTVSS
VL: SYELTQPLSVSVSPGQTASITCSGDKLGNVYASWYQQKPGQSPTLVIYQDNKRPSGIPERFSGSNSGKTATLTISGTQALDEADYYCQAWDSSTAVFGGGTKLTVL
B4: Anti-FAM19A5 antibody 13F7 (antibody, V domains shown)
VH: QVQLQEWGAGLLKPSETLSLTCAINAESFNGYSWTWIRQTPGKGLEWIGEISHFGSANYNPSLKSRATISADKSKNQFSLKLTSVTAVDTAVYYCARALRGTYSRFYYGMDVWGQGTTVTVSS
VL: DIVMTQTPLSLPVAPGEPASISCRSSQSLLHSNGYNYLDWYVQKPGQPPQLLIYLGSNRASGVPDRFSGSGSGTDFTLKISRVEAEDVGVYYCMQARQTPLTFGGGTKVEIK
B5: Anti-FAM19A5 antibody 3-2 (antibody, V domains shown)
VH: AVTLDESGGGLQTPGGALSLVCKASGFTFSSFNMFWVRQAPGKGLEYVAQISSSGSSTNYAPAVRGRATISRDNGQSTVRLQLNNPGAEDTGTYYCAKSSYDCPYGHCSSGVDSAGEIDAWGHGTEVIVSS
VL: ALTQPSSVSANPGETVKITCSGGGSYAGSYYYGWYQQKAPGSAPVTLIYESNKRPSDIPSRFSGSTSGSTATLTITGVQADDEAIYYCGSWDSSNGGIFGAGTTLTVL
notes: also called h3-2; m3-2
B6: Anti-FAM19A5 antibody P2-A03 (antibody, V domains shown)
VH: QSVEESGGRLVTPGTPLTLTCTVSGFSLNNYDMSWVRQAPGKGLEYIGFMDTDGSAYYATWAKGRFTISRTSTTVDLKMTSPTTEDTATYFCARRGSSYYGGIDIWGPGTPVTVSL
VL: ELDLTQTPASVSEPVGGTVTIKCQASQSIGGNLAWYQQKPGQPPKLLIYRASTLASGVPSRFKGSGSGTDFTLTISDLECADAATYYCQSPAYDPAAYVGNAFGGGTELEIL

Tests used:
[1] = biological target: T1, Mutant F5 peptide F5-1 (#1) (human); assay: ELISA, plate-coated F5 mutant peptides
T1 construct: already contained in the entry; also called mutant peptide #1
T1 peptide: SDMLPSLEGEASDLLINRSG

[2] = biological target: T2, Mutant F5 peptide F5-5 (#5) (human); assay: ELISA, plate-coated F5 mutant peptides
T2 construct: already contained in the entry; also called mutant peptide #5
T2 peptide: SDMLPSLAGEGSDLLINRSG

[3] = biological target: T3, Mutant F5 peptide F5-6 (#6) (human); assay: ELISA, plate-coated F5 mutant peptides
T3 construct: already contained in the entry; also called mutant peptide #6
T3 peptide: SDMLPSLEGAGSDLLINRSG

[4] = biological target: T4, Mutant F5 peptide F5-3 (#3) (human); assay: ELISA, plate-coated F5 mutant peptides
T4 construct: already contained in the entry; also called mutant peptide #3
T4 peptide: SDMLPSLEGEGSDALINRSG

[5] = biological target: T5, Mutant F5 peptide F5-8 (#8) (human); assay: ELISA, plate-coated F5 mutant peptides
T5 construct: already contained in the entry; also called mutant peptide #8
T5 peptide: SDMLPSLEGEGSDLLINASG

[6] = biological target: T6, Mutant F5 peptide F5-7 (#7) (human); assay: ELISA, plate-coated F5 mutant peptides
T6 construct: already contained in the entry; also called mutant peptide #7
T6 peptide: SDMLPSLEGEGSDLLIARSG

[7] = biological target: T7, Mutant F5 peptide F5-4 (#4) (human); assay: ELISA, plate-coated F5 mutant peptides
T7 construct: already contained in the entry; also called mutant peptide #4
T7 peptide: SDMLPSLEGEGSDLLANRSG

[8] = biological target: T8, Mutant F5 peptide F5-2 (#2) (human); assay: ELISA, plate-coated F5 mutant peptides
T8 construct: already contained in the entry; also called mutant peptide #2
T8 peptide: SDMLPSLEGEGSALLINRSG

FAM19A5 mutant M7 = biological target: T9, FAM19A5 mutant M7 (human); assay: ELISA on phage-expressed FAM19A5 mutants M1-M8
T9 chain: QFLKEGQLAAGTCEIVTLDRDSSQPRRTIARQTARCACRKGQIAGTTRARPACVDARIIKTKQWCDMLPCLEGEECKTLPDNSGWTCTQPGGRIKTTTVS

FAM19A5 mutant M8 = biological target: T10, FAM19A5 mutant M8 (human); assay: ELISA on phage-expressed FAM19A5 mutants M1-M8
T10 chain: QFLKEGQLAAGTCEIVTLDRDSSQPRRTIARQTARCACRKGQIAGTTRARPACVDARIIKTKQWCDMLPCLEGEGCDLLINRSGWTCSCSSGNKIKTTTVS

FAM19A5 mutant M6 = biological target: T11, FAM19A5 mutant M6 (human); assay: ELISA on phage-expressed FAM19A5 mutants M1-M8
T11 chain: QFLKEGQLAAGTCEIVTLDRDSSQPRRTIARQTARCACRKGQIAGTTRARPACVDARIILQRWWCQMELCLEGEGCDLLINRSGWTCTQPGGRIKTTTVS

[9] = biological target: T12, FAM19A5 epitope fragment F6, BSA-conjugated (human, conjugated to BSA); assay: ELISA, plate-coated BSA-conjugated FAM19A5 fragments F1-F6
T12 peptide: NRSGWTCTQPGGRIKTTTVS
Description: (§1) Binding of the different anti-FAM19A5 antibodies to the BSA-conjugated peptide fragments F1-F6 was determined by Western blot analysis or ELISA assay. For the Western blot analysis, BSA-conjugated FAM19A5 fragments F1-F6 were separated by SDS polyacrylamide gel electrophoresis and transferred to a nitrocellulose membrane by the standard procedure. The membrane was incubated with the anti-FAM19A5 antibody (e.g., 1-65, […], 1-65-scFv-rabbit Fc-SSS), and the antigen-antibody complexes were detected with the appropriate secondary antibody conjugated with horse-radish peroxidase (anti-rabbit IgG (Fc specific)-HRP, 1:4000 dilution). For the ELISA assay, the following protocol was used. FAM19A5 fragment F1-F6 (diluted to 1 μg/mL in 50 mM carbonate buffer (Biosesang) or to 20 μg/mL for high concentration analysis) were used to coat the wells of 96-well immuno plates (Thermo Scientific) (100 μL/well) overnight at 4° C. and then subsequently washed twice in 1×PBS. The plates were then blocked with the blocking buffer (100 μL/well) for 1 hour at room temperature. During the 1-hour incubation, the relavant anti-FAM19A5 antibodies were diluted to 1 μg/mL (or 20 μg/mL for high concentration analysis) in the diluent buffer. Once the plates were washed (2× using 1×PBS), the diluted anti-FAM19A5 antibodies were added to the appropriate wells, and the plates were incubated at room temperature for 1 hour. The plates were subsequently washed for a total of five times using the washing buffer. Next, the ODP substrate (prepared by dissolving one ODP tablet (O-phenylenediamine Dihydrochloride, Thermo) into 9 mL of sterilized deionized water and 1 mL of 10× stable Peroxide Stable buffer (Theromo)) was added to each of the wells, and the color change reaction was allowed to occur for 10 minutes. This reaction was stopped by adding 100 μL of 2N H2SO4 (Daejung) to the wells. The absorption value of each of the wells was detected at 492 nm using a 96-well microplate reader (Molecular Device).
(§2) As shown in FIGS. 19 and 20A, the anti-FAM19A5 antibody 1-65 bound strongly to fragment F5 as measured by both Western Blot and ELISA assay, respectively.

[10] = biological target: T13, FAM19A5 epitope fragment F3, BSA-conjugated (human, conjugated to BSA); assay: as above
T13 peptide: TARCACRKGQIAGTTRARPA
Description: as §1, §2

[11] = biological target: T14, FAM19A5 epitope fragment F2, BSA-conjugated (human, conjugated to BSA); assay: as above
T14 peptide: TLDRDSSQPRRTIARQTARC
Description: as §1, §2

[12] = biological target: T15, FAM19A5 epitope fragment F1, BSA-conjugated (human, also: conjugated to BSA); assay: as above
T15 construct: which number belongs to which fragment is not spelled out
T15 peptide: QLAAGTCEIVTLDR
Description: as §1, §2

FAM19A5 mutant M2 = biological target: T16, FAM19A5 mutant M2 (human); assay: ELISA on phage-expressed FAM19A5 mutants M1-M8
T16 chain: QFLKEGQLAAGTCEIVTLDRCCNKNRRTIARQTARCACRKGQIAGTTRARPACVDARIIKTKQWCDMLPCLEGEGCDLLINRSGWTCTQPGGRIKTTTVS

Binder | binding result [1] | binding result [2] | binding result [3] | binding result [4] | binding result [5] | binding result [6] | binding result [7] | binding result [8] | binding result (FAM19A5 mutant M7) | binding result (FAM19A5 mutant M8) | binding result (FAM19A5 mutant M6) | binding result [11] | other results
B1 | binds | binds | binds | no binding | no binding | binds | no binding | no binding | no binding | no binding | no binding | – | –
B2 | no binding | binds | no binding | binds | no binding | binds | binds | binds | – | – | no binding | no binding | binding result [9]: no binding; binding result [10]: no binding; binding result [12]: no binding
B3 | – | – | – | – | – | – | – | – | binds | no binding | no binding | – | –
B4 | – | – | – | – | – | – | – | – | binds | no binding | – | – | –
B5 | – | – | – | – | – | – | – | – | – | – | – | binds | binding result (FAM19A5 mutant M2): no binding
B6 | – | – | – | – | – | – | – | – | – | no binding | – | – | –
